From paper PMC6555819, “Comprehensive study of nuclear receptor DNA binding provides a revised framework for understanding receptor specificity”
Positions count from the first letter of the chain named.

B1: NRC3_wobSeed138_DR5_G9A_o1 (dsDNA)
DNA 1: GCGATACAAGGTCAGCTAGAGGCCAGAGTATGGAAAGCGATTGACAGCGTAGAATGAAGG
DNA 2: CCTTCATTCTACGCTGTCAATCGCTTTCCATACTCTGGCCTCTAGCTGACCTTGTATCGC
B2: NRC3_wobSeed138_DR5_A18T_o1 (dsDNA)
DNA 1: B1 DNA 1 with A9G, A18T
DNA 2: B1 DNA 2 with T43A, T52C
B3: NRC3_wobSeed34_DR1_A24C_o1 (dsDNA)
DNA 1: GCATCGAAAGGTCGAAGGTGAGTCTACCCACCCGAAGCGATTGACAGCGTAGAATGAAGG
DNA 2: CCTTCATTCTACGCTGTCAATCGCTTCGGGTGGGTAGACTCACCTTCGACCTTTCGATGC
B4: NRC3_wobSeed119_DR4_o1 (dsDNA)
DNA 1: GCGGAACGAGGGCATTCGAGTTGATAGCATGGCGATGCGATTGACAGCGTAGAATGAAGG
DNA 2: CCTTCATTCTACGCTGTCAATCGCATCGCCATGCTATCAACTCGAATGCCCTCGTTCCGC
B5: NRC3_wobSeed142_DR5_G22T_o1 (dsDNA)
DNA 1: GCATACCAAGGTGATCGTGAGTTCGTTGATACTAACGCGATTGACAGCGTAGAATGAAGG
DNA 2: CCTTCATTCTACGCTGTCAATCGCGTTAGTATCAACGAACTCACGATCACCTTGGTATGC
B6: NRC3_wobSeed30_DR1_G7T_o1 (dsDNA)
DNA 1: GCACTATCAGGCCAAGGGTCACTCAAGATTAGTCCGGCGATTGACAGCGTAGAATGAAGG
DNA 2: CCTTCATTCTACGCTGTCAATCGCCGGACTAATCTTGAGTGACCCTTGGCCTGATAGTGC
B7: NRC3_wobSeed140_DR5_A22G_o1 (dsDNA)
DNA 1: GCAGAATGAGGTTATACGTAGGTCAGGGAAGAAAGTGCGATTGACAGCGTAGAATGAAGG
DNA 2: CCTTCATTCTACGCTGTCAATCGCACTTTCTTCCCTGACCTACGTATAACCTCATTCTGC
B8: NRC3_wobSeed58_DR2_G23C_o1 (dsDNA)
DNA 1: GCATCGAAAGGTCGTGAGGTGACTATACAGAAAGGCGCGATTGACAGCGTAGAATGAAGG
DNA 2: CCTTCATTCTACGCTGTCAATCGCGCCTTTCTGTATAGTCACCTCACGACCTTTCGATGC
B9: NRC3_wobSeed137_DR5_A29T_o1 (dsDNA)
DNA 1: GCATATGTAGGTTACATCCGGGTCATTCTGGCTATGGCGATTGACAGCGTAGAATGAAGG
DNA 2: CCTTCATTCTACGCTGTCAATCGCCATAGCCAGAATGACCCGGATGTAACCTACATATGC
B10: NRC3_wobSeed5_DR0_T5G_o1 (dsDNA)
DNA 1: GCCCGTACGGGTCAAGGTTATAGCACGGGTGGTACGGCGATTGACAGCGTAGAATGAAGG
DNA 2: CCTTCATTCTACGCTGTCAATCGCCGTACCACCCGTGCTATAACCTTGACCCGTACGGGC
B11: NRC3_wobSeed106_DR4_G6C_o1 (dsDNA)
DNA 1: GCCTCCAAAGGTCGGTTGAGGTGAGTATACGGATAAGCGATTGACAGCGTAGAATGAAGG
DNA 2: CCTTCATTCTACGCTGTCAATCGCTTATCCGTATACTCACCTCAACCGACCTTTGGAGGC
B12: NRC3_wobSeed72_DR2_o1 (dsDNA)
DNA 1: GCTCGAGTAGGTTACGGGGGCATTCAGGGATGAAGAGCGATTGACAGCGTAGAATGAAGG
DNA 2: CCTTCATTCTACGCTGTCAATCGCTCTTCATCCCTGAATGCCCCCGTAACCTACTCGAGC
B13: NRC3_wobSeed13_DR0_T18G_o1 (dsDNA)
DNA 1: GCCGTCCAAGGTCAAGGGCAGTGAAAGAGACTCGAAGCGATTGACAGCGTAGAATGAAGG
DNA 2: CCTTCATTCTACGCTGTCAATCGCTTCGAGTCTCTTTCACTGCCCTTGACCTTGGACGGC
B14: NRC3_wobSeed23_DR0_A9G_o1 (dsDNA)
DNA 1: GCGGAACGGGGGCAAGTTGATAGCAGAGTTTGATGGGCGATTGACAGCGTAGAATGAAGG
DNA 2: CCTTCATTCTACGCTGTCAATCGCCCATCAAACTCTGCTATCAACTTGCCCCCGTTCCGC
B15: NRC3_wobSeed104_DR4_G7A_o1 (dsDNA)
DNA 1: GCTCTTATAGATCAATAGAGGTTAAGAAAGTGCGCTGCGATTGACAGCGTAGAATGAAGG
DNA 2: CCTTCATTCTACGCTGTCAATCGCAGCGCACTTTCTTAACCTCTATTGATCTATAAGAGC
B16: NRC3_wobSeed130_DR5_C19T_o1 (dsDNA)
DNA 1: GCCTCGAAAGGTCGTGCTTAGGTGAGTATACCAAACGCGATTGACAGCGTAGAATGAAGG
DNA 2: CCTTCATTCTACGCTGTCAATCGCGTTTGGTATACTCACCTAAGCACGACCTTTCGAGGC
B17: NRC3_wobSeed130_DR5_A30G_o1 (dsDNA)
DNA 1: B16 DNA 1 with T19C, A30G
DNA 2: B16 DNA 2 with T31C, A42G
B18: NRC3_wobSeed130_DR5_G16C_o1 (dsDNA)
DNA 1: B16 DNA 1 with G16C, T19C
DNA 2: B16 DNA 2 with A42G, C45G
B19: NRC3_wobSeed29_DR1_C13G_o1 (dsDNA)
DNA 1: GCGCTTACGGGTGAAAGGTTATAGCATGAATAGAATGCGATTGACAGCGTAGAATGAAGG
DNA 2: CCTTCATTCTACGCTGTCAATCGCATTCTATTCATGCTATAACCTTTCACCCGTAAGCGC
B20: NRC3_wobSeed120_DR4_A14C_o1 (dsDNA)
DNA 1: GCCCGAGTAGGTTCCGAGGGGGCATTCAGTGCGAATGCGATTGACAGCGTAGAATGAAGG
DNA 2: CCTTCATTCTACGCTGTCAATCGCATTCGCACTGAATGCCCCCTCGGAACCTACTCGGGC
B21: NRC3_wobSeed120_DR4_G10A_o1 (dsDNA)
DNA 1: B20 DNA 1 with G10A, C14A
DNA 2: B20 DNA 2 with G47T, C51T
B22: NRC3_wobSeed3_DR0_A9G_o1 (dsDNA)
DNA 1: GCGCTCGGGGGACAAGGTCAGAGCTTTGTCCGTAGAGCGATTGACAGCGTAGAATGAAGG
DNA 2: CCTTCATTCTACGCTGTCAATCGCTCTACGGACAAAGCTCTGACCTTGTCCCCCGAGCGC
B23: NRC3_wobSeed112_DR4_T8A_o1 (dsDNA)
DNA 1: GCTAGCCAAGGTCAGATCGGGCCAGTATACGCTATAGCGATTGACAGCGTAGAATGAAGG
DNA 2: CCTTCATTCTACGCTGTCAATCGCTATAGCGTATACTGGCCCGATCTGACCTTGGCTAGC
B24: NRC3_wobSeed66_DR2_A17T_o1 (dsDNA)
DNA 1: GCAATACAGGGTCACTTGGCCAGAGTAGGTACGAATGCGATTGACAGCGTAGAATGAAGG
DNA 2: CCTTCATTCTACGCTGTCAATCGCATTCGTACCTACTCTGGCCAAGTGACCCTGTATTGC
B25: NRC3_wobSeed66_DR2_A27G_o1 (dsDNA)
DNA 1: B24 DNA 1 with T17A, A27G
DNA 2: B24 DNA 2 with T34C, A44T

Each binder was assayed against PXR:RXRa (Homo sapiens, UniProt O75469;P19793 full;full) (assay: no ligand; PBM; 270 nM : 90 nM RXRa; PBS pH 7.4, 2% milk, 0.02% Triton X-100, 1 mM DTT, BSA, 0.4 mg/ml salmon testes DNA). Settings: tags: His kept;His cleaved; copies: 1;1; label: surface-attached array probe.
PXR:RXRa, sequence (O75469 whole entry, chain 1 of 2): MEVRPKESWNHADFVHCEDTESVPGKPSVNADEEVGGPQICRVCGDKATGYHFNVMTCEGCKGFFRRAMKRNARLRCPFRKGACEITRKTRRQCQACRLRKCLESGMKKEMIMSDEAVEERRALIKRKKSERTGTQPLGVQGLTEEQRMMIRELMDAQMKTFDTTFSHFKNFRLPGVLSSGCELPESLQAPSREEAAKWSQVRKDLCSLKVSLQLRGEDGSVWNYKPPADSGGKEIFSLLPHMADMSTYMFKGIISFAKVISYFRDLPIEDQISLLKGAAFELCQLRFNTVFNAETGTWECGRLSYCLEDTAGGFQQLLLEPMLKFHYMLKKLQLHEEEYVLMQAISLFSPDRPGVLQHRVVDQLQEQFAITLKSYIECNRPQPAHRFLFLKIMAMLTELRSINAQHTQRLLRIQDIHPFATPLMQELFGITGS
PXR:RXRa, sequence (P19793 whole entry, chain 2 of 2): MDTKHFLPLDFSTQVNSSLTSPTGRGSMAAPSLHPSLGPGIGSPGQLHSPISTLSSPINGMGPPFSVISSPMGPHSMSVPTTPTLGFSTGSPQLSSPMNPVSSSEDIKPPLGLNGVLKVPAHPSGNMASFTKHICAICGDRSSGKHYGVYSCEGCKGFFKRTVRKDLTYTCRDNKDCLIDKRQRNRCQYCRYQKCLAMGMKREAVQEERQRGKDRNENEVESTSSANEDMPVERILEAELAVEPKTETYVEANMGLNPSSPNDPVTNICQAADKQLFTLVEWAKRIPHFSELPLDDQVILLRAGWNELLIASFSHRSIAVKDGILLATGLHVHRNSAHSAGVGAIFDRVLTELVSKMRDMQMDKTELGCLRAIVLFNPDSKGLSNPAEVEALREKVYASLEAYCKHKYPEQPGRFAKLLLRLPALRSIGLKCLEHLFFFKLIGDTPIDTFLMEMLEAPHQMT
How it was run: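 Probes were double-stranded and carried 34-nt variable regions with direct-repeat seeds, single-nucleotide variants, half-site ablations and random human genomic background sequences, printed on custom Agilent 4×180K protein-binding microarrays. Arrays were incubated 1 h with ligand-free nuclear receptor dimers in PBS pH 7.4, 2% milk, 0.02% Triton X-100, 1 mM DTT, 0.2 mg/mL BSA and 0.4 mg/ml salmon testes DNA. Antibodies against each partner (one per run) detected binding, and scanned fluorescence was regression-normalized. Binding z-scores use the random background probes as reference.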
In the case of B1, the binding signal is reported as 3.38 PBM z-score against 500 random probes. In the case of B2, the binding signal is reported as 3.18 PBM z-score against 500 random probes. In the case of B3, the binding signal is reported as 3.17 PBM z-score against 500 random probes. With B4 the binding signal was 3.4 PBM z-score against 500 random probes. In the case of B5, the binding signal is reported as 3.5 PBM z-score against 500 random probes. For B6, the binding signal was 3.31 PBM z-score against 500 random probes. With B7 the binding signal was 3.29 PBM z-score against 500 random probes. In the case of B8, the binding signal is reported as 3.52 PBM z-score against 500 random probes. For B9, the binding signal was 3.07 PBM z-score against 500 random probes. With B10 the binding signal was 3.48 PBM z-score against 500 random probes. For B11, the binding signal was 3.35 PBM z-score against 500 random probes. In the case of B12, the binding signal is reported as 3.16 PBM z-score against 500 random probes. In the case of B13, the binding signal is reported as 3.34 PBM z-score against 500 random probes. In the case of B14, the binding signal is reported as 3.23 PBM z-score against 500 random probes. B15 was tested, and the binding signal was 3.11 PBM z-score against 500 random probes. With B16 the binding signal was 3.37 PBM z-score against 500 random probes. For B17, the binding signal was 3.26 PBM z-score against 500 random probes. For B18, the binding signal was 3.28 PBM z-score against 500 random probes. For B19, the binding signal was 3.2 PBM z-score against 500 random probes. With B20 the binding signal was 3.13 PBM z-score against 500 random probes. For B21, the binding signal was 3.08 PBM z-score against 500 random probes. In the case of B22, the binding signal is reported as 3.22 PBM z-score against 500 random probes. B23 was tested, and the binding signal was 3.44 PBM z-score against 500 random probes. With B24 the binding signal was 3.45 PBM z-score against 500 random probes. In the case of B25, the binding signal is reported as 3.32 PBM z-score against 500 random probes.
